Measurements reported in patent publication US20110300138A1 (published 2011).

Columns and labels:
[1] = molecular target: TSHR with Thr257 mutated to Ala, expressed in CHO cells (human) (UniProt P16473); assay: cell-based or functional assay
[2] = molecular target: wild type TSHR (human TSH receptor) expressed in CHO cells (human) (UniProt P16473); assay: cell-based or functional assay
[3] = molecular target: TSH receptor (TSHR), full length human, coated on tubes (human) (UniProt P16473); assay: inhibition of 125I-TSH binding to TSHR coated tubes; 10 µg/mL, diluted in HBD serum pool
[4] = molecular target: thyroid stimulating hormone receptor (TSHR), full length human TSHR (human) (UniProt P16473); assay: TSH-biotin competition ELISA, TSHR coated wells; negative control, 100 µg/mL in HBD serum
[5] = molecular target: thyroid stimulating hormone receptor (TSHR), full length human TSHR (human) (UniProt P16473); assay: TSH-biotin competition ELISA, TSHR coated wells; negative control, 100 µg/mL in assay buffer
[6] = molecular target: TSH receptor (TSHR) coated on tubes (human) (UniProt P16473); assay: inhibition of 125I-K1-70 IgG binding to TSHR coated tubes; negative control 0.001 µg/mL in assay buffer
[7] = molecular target: TSHR (full length) coated on tubes (human) (UniProt P16473); assay: inhibition of 125I-K1-18 Fab (competitor) binding to TSHR coated tubes; negative control 0.01 µg/mL in HBD serum
[8] = molecular target: TSHR (full length) coated on tubes (human) (UniProt P16473); assay: inhibition of 125I-K1-18 Fab (competitor) binding to TSHR coated tubes; negative control 10 µg/mL in assay buffer
[9] = molecular target: TSH receptor (full length human TSHR) (human) (UniProt P16473); assay: competition ELISA: inhibition of M22 Fab-peroxidase (competitor) binding to TSHR coated wells; negative control at 100 µg/mL diluted in assay buffer
[10] = molecular target: TSHR (thyroid stimulating hormone receptor), full length human (human) (UniProt P16473); assay: competitor ^125I-K1-70 IgG, TSHR coated tubes; 1 µg/mL in HBD
[11] = molecular target: TSHR (thyroid stimulating hormone receptor), full length human (human) (UniProt P16473); assay: competitor ^125I-K1-70 IgG, TSHR coated tubes; 1 µg/mL in assay buffer
[12] = molecular target: TSHR (thyroid stimulating hormone receptor), full length human (human) (UniProt P16473); assay: competitor ^125I-K1-70 IgG, TSHR coated tubes; 0.1 µg/mL in assay buffer
[13] = molecular target: TSHR (full length) coated on tubes (human) (UniProt P16473); assay: inhibition of 125I-K1-18 Fab (competitor) binding to TSHR coated tubes; test sample 1 µg/mL in HBD serum
[14] = molecular target: TSHR (full length) coated on tubes (human) (UniProt P16473); assay: inhibition of 125I-K1-18 Fab (competitor) binding to TSHR coated tubes; test sample 0.1 µg/mL in HBD serum
[15] = molecular target: TSHR (full length) coated on tubes (human) (UniProt P16473); assay: inhibition of 125I-K1-18 Fab (competitor) binding to TSHR coated tubes; test sample 0.01 µg/mL in HBD serum
[16] = molecular target: TSH receptor (TSHR), full length human, coated on tubes (human) (UniProt P16473); assay: inhibition of 125I-K1-18 IgG binding to TSHR coated tubes; competitor 125I-K1-18 IgG; sample at 0.1 µg/mL in HBD serum
[17] = molecular target: TSH receptor (full length human TSHR) (human) (UniProt P16473); assay: competition ELISA: inhibition of M22 Fab-peroxidase (competitor) binding to TSHR coated wells; test sample at 100 µg/mL diluted in HBD serum pool
[18] = molecular target: TSHR with Arg274 mutated to Ala, expressed in CHO cells (human) (UniProt P16473); assay: cell-based or functional assay
[19] = molecular target: TSHR with Ser281 mutated to Ala, expressed in CHO cells (human) (UniProt P16473); assay: cell-based or functional assay
[20] = molecular target: TSH receptor (TSHR), full length human, coated on tubes (human) (UniProt P16473); assay: inhibition of 125I-TSH binding to TSHR coated tubes; 1 µg/mL, diluted in assay buffer
[21] = molecular target: TSH receptor (TSHR), full length human, coated on tubes (human) (UniProt P16473); assay: inhibition of 125I-K1-18 IgG (competitor) binding to TSHR coated tubes; test sample at 10 µg/mL in assay buffer
[22] = molecular target: TSH receptor (TSHR), full length human, coated on tubes (human) (UniProt P16473); assay: inhibition of 125I-K1-18 IgG (competitor) binding to TSHR coated tubes; test sample at 1 µg/mL in HBD serum pool; mean of duplicate

5B3 IgG (antibody)
% inhibition of TSH stimulation; 5B3 10 µg/mL [1]: 0%
% inhibition of TSH stimulation; 5B3 100 µg/mL [1]: 7%
Cyclic AMP produced; 5B3 10 µg/mL + TSH 3 ng/mL [1]: 94.2 pmol/mL
Cyclic AMP produced; 5B3 100 µg/mL + TSH 3 ng/mL [1]: 86.8 pmol/mL
Mutated/wild type (%) of cyclic AMP produced; 5B3 10 µg/mL + TSH 3 ng/mL [1]: 110%
Mutated/wild type (%) of cyclic AMP produced; 5B3 100 µg/mL + TSH 3 ng/mL [1]: 104%
Cyclic AMP produced; 5B3 10 µg/mL + TSH 3 ng/mL [2]: 85.9 pmol/mL
Cyclic AMP produced; 5B3 100 µg/mL + TSH 3 ng/mL [2]: 83.7 pmol/mL
Inhibition of binding (%) [3]: -1.9%
Inhibition of binding (%) [4]: -2.3%
Inhibition of binding (%) [5]: 1.3%
Inhibition of binding (%) [6]: -1.5%
Inhibition of binding (%) [7]: -8.6%
Inhibition of binding (%) [8]: 0.6%
Inhibition of binding (%) [9]: 8.1%

9D33 IgG (antibody)
Inhibition of binding (%) [10]: 40.5%
Inhibition of binding (%) [11]: 37.2%
Inhibition of binding (%) [12]: 24.8%
Inhibition of binding (%) [13]: 64.8%
Inhibition of binding (%) [14]: 32.2%
Inhibition of binding (%) [15]: 2.3%
Inhibition of binding (%) [16]: 33.8%
Inhibition of binding (%) [17]: 65.9%

TSH (ligand)
Cyclic AMP produced (pmol/mL), TSH 0.01 ng/mL, Experiment 1 [18]: 1.97 pmol/mL
Cyclic AMP produced (pmol/mL), TSH 0.01 ng/mL, Experiment 2 [18]: 1.37 pmol/mL
Cyclic AMP produced (pmol/mL), TSH 0.03 ng/mL, Experiment 1 [18]: 4.14 pmol/mL
Cyclic AMP produced (pmol/mL), TSH 0.03 ng/mL, Experiment 2 [18]: 2.94 pmol/mL
Cyclic AMP produced (pmol/mL), TSH 0.1 ng/mL, Experiment 1 [18]: 9.38 pmol/mL
Cyclic AMP produced (pmol/mL), TSH 0.1 ng/mL, Experiment 2 [18]: 8.29 pmol/mL
Cyclic AMP produced (pmol/mL), TSH 0.3 ng/mL, Experiment 1 [18]: 27.3 pmol/mL
Cyclic AMP produced (pmol/mL), TSH 0.3 ng/mL, Experiment 2 [18]: 25.5 pmol/mL
Cyclic AMP produced (pmol/mL), TSH 1 ng/mL, Experiment 1 [18]: 67.6 pmol/mL
Cyclic AMP produced (pmol/mL), TSH 1 ng/mL, Experiment 2 [18]: 58.5 pmol/mL
Cyclic AMP produced (pmol/mL), TSH 3 ng/mL, Experiment 1 [18]: 98.8 pmol/mL
Cyclic AMP produced (pmol/mL), TSH 3 ng/mL, Experiment 2 [18]: 73.2 pmol/mL
Mutated/Wild type (%), TSH 0.01 ng/mL, Experiment 1 [18]: 106%
Mutated/Wild type (%), TSH 0.01 ng/mL, Experiment 2 [18]: 55%
Mutated/Wild type (%), TSH 0.03 ng/mL, Experiment 1 [18]: 125%
Mutated/Wild type (%), TSH 0.03 ng/mL, Experiment 2 [18]: 57%
Mutated/Wild type (%), TSH 0.1 ng/mL, Experiment 1 [18]: 64%
Mutated/Wild type (%), TSH 0.1 ng/mL, Experiment 2 [18]: 61%
Mutated/Wild type (%), TSH 0.3 ng/mL, Experiment 1 [18]: 56%
Mutated/Wild type (%), TSH 0.3 ng/mL, Experiment 2 [18]: 64%
Mutated/Wild type (%), TSH 1 ng/mL, Experiment 1 [18]: 74%
Mutated/Wild type (%), TSH 1 ng/mL, Experiment 2 [18]: 79%
Mutated/Wild type (%), TSH 3 ng/mL, Experiment 1 [18]: 83%
Mutated/Wild type (%), TSH 3 ng/mL, Experiment 2 [18]: 82%
% inhibition of TSH stimulation; TSH (2) (run at the end of assay, against the first TSH sample); Experiment 1 [19]: 19%
% inhibition of TSH stimulation; TSH (2) (run at the end of assay, against the first TSH sample); Experiment 2 [19]: 4%
Cyclic AMP produced (pmol/mL), TSH 0.01 ng/mL, mutated TSHR [19]: 2.84 pmol/mL
Cyclic AMP produced (pmol/mL), TSH 0.03 ng/mL, mutated TSHR [19]: 4.69 pmol/mL
Cyclic AMP produced (pmol/mL), TSH 0.1 ng/mL, mutated TSHR [19]: 11.3 pmol/mL
Cyclic AMP produced (pmol/mL), TSH 0.3 ng/mL, mutated TSHR [19]: 27.5 pmol/mL
Cyclic AMP produced (pmol/mL), TSH 1 ng/mL, mutated TSHR [19]: 51.6 pmol/mL
Cyclic AMP produced (pmol/mL), TSH 3 ng/mL, mutated TSHR [19]: 68 pmol/mL
Mutated/Wild type (%), TSH 0.01 ng/mL [19]: 140%
Mutated/Wild type (%), TSH 0.03 ng/mL [19]: 128%
Mutated/Wild type (%), TSH 0.1 ng/mL [19]: 117%
Mutated/Wild type (%), TSH 0.3 ng/mL [19]: 88%
Mutated/Wild type (%), TSH 1 ng/mL [19]: 85%
Mutated/Wild type (%), TSH 3 ng/mL [19]: 82%
Mutated/wild type (%) of cyclic AMP produced; test sample TSH (3 ng/mL); Experiment 1 [19]: 79%
Mutated/wild type (%) of cyclic AMP produced; test sample TSH (3 ng/mL); Experiment 2 [19]: 92%
Mutated/wild type (%) of cyclic AMP produced; test sample TSH (2) (3 ng/mL, run at the end of assay); Experiment 1 [19]: 57%
Mutated/wild type (%) of cyclic AMP produced; test sample TSH (2) (3 ng/mL, run at the end of assay); Experiment 2 [19]: 79%

B1: 5C9 IgG (antibody, from another filing, V domains shown)
VH: EVQLVESGGGLIQPGGSLRLSCAASGFTVSSNYMSWVRQAPGKGLEWVSVTYSGGSTSYADSVKGRFTISRDNSKNTLYLQMNSLRAEDTAVYYCARGGRYCSSISCYARSGCDYWGQGTLVTVSS
VL: AIQMTQSPSSLSASVGDRVTITCRASQSISNYLNWYQQKPGKAPKLLIYAASSLQSGVPSRFSGSGSGTDFTLTISSLQPEDFATYYCQQSYSSPSTTFGQGTKLEIK
Inhibition of binding (%) [20]: 38.7%
Inhibition of binding (%) [21]: 65.9%
Inhibition of binding (%) [22]: 26.8%
